Reference: patent US9987242B2, “Treatment of Levodopa-induced Dyskinesias” (NORTHWESTERN UNIVERSITY, priority 2015, dated 2018)
Entries after “also recorded” stand apart in the source; their conditions may differ.

Tests used:
PD disability = experiment: Primate PD disability (anti-parkinsonian effect of L-DOPA); format: in vivo; details: with L-DOPA; n=4; p>0.05
From the text: (§1) FIG. 18. […] Data are represented as median.

[1] = system: primate dyskinetic scores; experiment: Primate dyskinesia scores; format: in vivo; details: with L-DOPA; n=4
From the text: FIG. 12. Plot of sum of primate dyskinesia scores (median) as a function of time (Fr=11.64, n=4; p<0.01, Friedman's test).
as §1

[2] = system: dSPN glutamatergic synapses; experiment: Spike-timing-dependent LTD induction (post-pre pairing) in dSPNs, ex vivo corticostriatal slices, perforated-patch or whole-cell recording; format: cell-based, mice
From the text: Male C57Bl/6 and FVB mice expressing tdTomato or eGFP under control of either the Drd1 or Drd2 receptor regulatory elements were used. All the mice used for the study were hemizygous for these transgenes. For some experiments, D1-tdTomato BAC mice were crossed with a transgenic line expressing Cre recombinase under control of the ChAT promoter. All mice were 8-10 weeks of age before stereotaxic surgery. Animal use procedures were reviewed and approved by the Northwestern Institutional Animal Care and Use Committee.
Slices were then transferred to a holding chamber containing aCSF. After an incubation period at 34° C. for 30 min, the slices were then kept in the holding chamber at the room temperature for another 30 min before use.
Individual slices were transferred to a recording chamber and were continuously perfused (2-3 ml min^−1) with aCSF for the duration of the experiment. Experiments were performed in the dorsolateral striatum at elevated temperature (30-31° C.).
All the recordings were made using a MultiClamp 700 A amplifier, and signals were filtered at 2 kHz and digitized at 10 kHz. Data were excluded when the series resistance changed >20% over the time course of the experiment. […] Capacitance current was continuously monitored during perforation by applying a 5-10 mV pulse from a holding potential of −70 mV. The amplifier bridge circuit was adjusted to compensate for series resistance and continuously monitored during recordings. Electrode capacitance was also compensated. Data were excluded when the input resistance (Ri) changed >20% over the time course of the experiment.
Data analysis was conducted with Igor Pro 6 (Wavemetrics, Lake Oswego, Oreg.) and Clampfit 9 (Molecular Devices). EPSP amplitude was calculated from 50-60 sweeps immediately before the start of induction and 20-30 min after the end of induction. The change in EPSP amplitude was calculated by averaging EPSP values after the induction and normalized to the average baseline EPSP amplitude. Compiled data were expressed as mean±s.e.m. Statistical tests were performed using Excel (Microsoft, Redmond, Wash.) and SigmaStat (Systat, San Jose, Calif.). Non-parametric Mann-Whitney or Wilcoxon tests were used to assess the experiment results, using a probability threshold of 0.05.
(§2) To determine if M4Rs were modulating synaptic plasticity, a spike-timing-dependent plasticity (STDP) paradigm was used. […] Once identified, neurons were monitored and controlled with perforated-patch recording to preserve intracellular signaling mechanisms and to allow stable, long-term monitoring of synaptic strength (FIG. 1A).
Synaptic plasticity was induced by pairing local stimulation of glutamatergic afferent fibers with postsynaptic spikes evoked by short bursts of intracellular current injection that were repeated at 5 Hz (FIGS. 1B, 4A).

iSPNs = experiment: Spike-timing-dependent LTD induction (post-pre pairing) in iSPNs, ex vivo slices; format: cell-based, mice; details: MT3 100 nM
Experimental: Mice were deeply anesthetized intraperitoneally with a mixture of ketamine (50 mg kg−1) and xylazine (4 mg kg−1) and perfused transcardially with 5-10 ml of ice-cold artificial CSF (aCSF) comprising (in mM): 125 NaCl, 2.5 KCl, 1.25 NaH2PO4, 2.0 CaCl2, 1.0 MgCl2, 26 NaHCO3 and 10 glucose (305 mOsm l^−1). Parasagittal corticostriatal slices (250 μm) were cut in ice-cold external solution containing (mM) 110 choline chloride, 26 NaHCO3, 1.25 NaH2PO4, 2.5 KCl, 0.5 CaCl2, 7 MgCl2, 11.6 sodium ascorbate, 3.1 sodium pyruvate and 5 glucose (305 mOsm l^−1). Slices were then transferred to a holding chamber containing aCSF. After an incubation period at 34° C. for 30 min, the slices were then kept in the holding chamber at the room temperature for another 30 min before use.
as §2

| Molecule | anti-parkinsonian effect of L-DOPA on PD disability (PD disability) | primate dyskinetic scores [1] | LTD induction in dSPNs ([2]; MT3 100 nM with CNO) | LTD induction in dSPNs (EPSP amplitude) ([2]; MT3 100 nM with physostigmine 10 μM + VU10010 5 μM, 20 repetitions) | LTD induction in dSPNs (EPSP amplitude) ([2]; post-pre pairing, MT3 100 nM along with SCH23390) | LTD induction in iSPNs (iSPNs) |
| --- | --- | --- | --- | --- | --- | --- |
| Cc1nnc2sc(C(=O)NCc3ccc(-c4cccnc4F)cc3)c(N)c2c1C [VU0476406] | did not occur at the expense of anti-parkinsonian effect of L-DOPA | reduction in primate dyskinetic scores |  |  |  |  |
| muscarinic toxin 3 (protein, UniProt P81031 1-65, looked up) Muscarinic toxin 3: LTCVTKNTIFGITTENCPAGQNLCFKRWHYVIPRYTEITRGCAATCPIPENYDSIHCCKTDKCNE |  |  | LTD was blunted | induction was blunted | blocked induction of LTD; also recorded: LTD was disrupted | LTD was induced |
